Results on 5 compounds are retold here after patent publication EP4755393A1, “USE OF PROTON PUMP REGULATOR IN PREPARATION OF DRUG” (Shanghai Quietd Biotechnology Co., Ltd., priority 2023, dated 2025).

The target of one assay is hATP6V1B2 (Homo sapiens, UniProt P21281). In words: Co-immunoprecipitation of Myc-tagged hATP6V1B2 with GFP-tagged QD202 and site mutants (HEK 293 lysates, western blot). Type of assay: binding. The following applies: expressed from pEGFP-N3 plasmids in HEK 293, anti-GFP IP, FIG. 7A, 7B. As for the experimental part:
Expression plasmids of hATP6V1B2, QD202, site-mutated QD202(D15A), site-mutated QD202(V16A), site-mutated QD202(P13A), and site-mutated QD202(V14A) were constructed respectively. The hATP6V1B2 was co-transfected into HEK 293 cells with the expression plasmids of QD202, site-mutated QD202(D15A), site-mutated QD202(V16A), site-mutated QD202(P13A) and site-mutated QD202(V14A), respectively, and cellular proteins were extracted 48 h after transfection. Table 1: Plasmid sequences
Protein extraction was performed using Pierce RIPA lysis buffer. Taking cells in a 60 mm culture dish as an example, 500 µL of Pierce RIPA lysis buffer containing protease inhibitors was added. Cells were collected and transferred to a clean 1.5 mL EP tube using a cell scraper. After mixing for 1 h on a rotary mixer at 4°C, the cells were centrifuged at 13,000 rpm at 4°C for 10 min to remove cell debris. The hATP6V1B2 was equally divided into […], which were then mixed separately with the cell lysates transfected with QD202, site-mutated QD202(P13A), site-mutated QD202(V14A), site-mutated QD202(D15A), and site-mutated QD202(V16A), 30 µL of the supernatant was taken and mixed with 10 µL of 4× loading buffer, followed by boiling at 100°C for 5 min and storage at -20°C; 2 µL of the antibody (Anti-GFP, Roche, 11814460001) was added to the remaining 470 µL of the protein lysate, and the mixture was incubated overnight (about 16-18 h) on a rotary shaker at 4°C. 30 µL of Protein G Sepharose beads (Roche, 11243233001) were placed in an EP tube and washed three times with Pierce RIPA lysis buffer to eliminate interference from the original stock solution. The protein that had been incubated with the antibody overnight was added to the Sepharose beads, followed by mixing and incubation at 4°C for 2 h to ensure sufficient binding between the antibody and the protein. The mixture was centrifuged at 4000 rpm for 1 min. The supernatant was aspirated off, followed by the addition of 600 µL of Pierce RIPA lysis buffer. The tube was gently inverted, followed by centrifugation to collect the supernatant. The above steps were repeated three times to wash away non-specifically bound proteins. Finally, 30 µL of 1×loading buffer was added, the mixture was mixed well, heated at 60°C for 20 min to denature the protein, and then stored at -20°C. The protein was examined by western blot (Myc-Tag (9B11) Mouse mAb, CST, 2276S; Anti-GFP, Roche, 11814460001).
The hATP6V1B2 was co-transfected into the host cell line HEK 293 with the expression plasmids of QD202, site-mutated QD202(P13A), site-mutated QD202(V14A), site-mutated QD202(D15A) and site-mutated QD202(V16A), respectively. […] It is therefore hypothesized that valine at position 16 of QD202 is one of the key amino acids for the binding between hATP6V1B2 and QD202, whereas proline at position 13, valine at position 14 and aspartic acid at position 15 can be replaced with alanine, as illustrated in FIG. 7A and FIG. 7B.

The test system of assay [1] is Male SD rats. In words: Neurological function scoring after MCAO (Middle Cerebral Artery Occlusion). Type of assay: in vivo. The following applies: 5 mpk, from 3 days prior to surgery once daily plus doses on day of surgery; 24 h after MCAO; vs Model + QD202 placebo; FIG. 16. From the text:
(§1) Experimental protocol: Male SD rats (260-280 g) were randomly assigned to the following groups: Sham + QD202 placebo group (n=6), Model + QD202 placebo group (n=6), positive control group (Edaravone-5 mpk, n=6), QD202-1 mpk group (n=6), QD202-3 mpk group (n=6), QD202-5 mpk group (n=6). The sham group served as the sham-operated group, while rats in the model group were subjected to Middle Cerebral Artery Occlusion (MCAO) for model establishment. For the edaravone-treated group, administration was initiated 3 days prior to surgery, once daily; on the day of surgery, a total of […] were given (30 min before surgery, 30 min after surgery, and 60 min after surgery). Rats in the QD202 groups received a single dose at 30 min after surgery. At 24 h postoperatively, neurological function was scored according to Table 3. Subsequently, the whole brain tissues of the rats were harvested for TTC staining to evaluate the infarct volume. […]

Assay [2] relates to Male SD rats. In words: TTC staining of infarct volume after MCAO. The assay is classed as in vivo. The following applies: 5 mpk, from 3 days prior to surgery once daily plus doses on day of surgery, 24 h after MCAO, vs Model + QD202 placebo, FIG. 17.
Source text: as §1

The subject of the next assay is HT22 cells. Kind of assay: Quantitative detection of ROS (DCFH-DA) in the oxygen-glucose deprivation (OGD) cell model. Type of assay: cell-based. The following applies: Mus musculus, HT-22, OGD 16 h, 24 h reoxygenation, OGD plus vehicle = 100%, mean ± standard deviation, read-out: inhibition rate of ROS. As for the experimental part: Cell culture: Mouse hippocampal HT22 cells were cultured in DMEM and 10% serum at 37°C in a 5% CO2 incubator.
Oxygen-glucose deprivation (OGD) cell model: HT22 cells were seeded at a density of about 1 ×10^5 into 96-well plates and cultured for 24 h in a 37°C incubator with 5% CO2/95% air in DMEM and 10% serum. After placing HT22 cells in glucose-free medium, they were transferred to a sealed container containing a 5% CO2/95% N2 mixture and incubated at 37°C for 16 h. The glucose-free medium was then replaced with a normal medium containing glucose, and the mixture was incubated for 24 h in a 37°C incubator containing 5% CO2/95% air for reoxygenation.
Experimental grouping: Normally cultured HT22 cells were used as the control group. […] After 24 h of reoxygenation, quantitative detection of ROS was performed.
Quantitative detection of ROS: Reactive oxygen species were detected using the Beyotime reactive oxygen species detection kit and the fluorescent probe DCFH-DA. […] Observation was performed under a fluorescence microscope, followed by quantification of the average fluorescence intensity using Image J software.
Data analysis: Three parallel experiments were performed. The average fluorescence intensity of the OGD plus vehicle group was set as the standard value of 100% for normalization of the fluorescence intensity of cells in each group. […]

Ends that are not written are not given here.

Chain of hATP6V1B2 (P21281 whole entry): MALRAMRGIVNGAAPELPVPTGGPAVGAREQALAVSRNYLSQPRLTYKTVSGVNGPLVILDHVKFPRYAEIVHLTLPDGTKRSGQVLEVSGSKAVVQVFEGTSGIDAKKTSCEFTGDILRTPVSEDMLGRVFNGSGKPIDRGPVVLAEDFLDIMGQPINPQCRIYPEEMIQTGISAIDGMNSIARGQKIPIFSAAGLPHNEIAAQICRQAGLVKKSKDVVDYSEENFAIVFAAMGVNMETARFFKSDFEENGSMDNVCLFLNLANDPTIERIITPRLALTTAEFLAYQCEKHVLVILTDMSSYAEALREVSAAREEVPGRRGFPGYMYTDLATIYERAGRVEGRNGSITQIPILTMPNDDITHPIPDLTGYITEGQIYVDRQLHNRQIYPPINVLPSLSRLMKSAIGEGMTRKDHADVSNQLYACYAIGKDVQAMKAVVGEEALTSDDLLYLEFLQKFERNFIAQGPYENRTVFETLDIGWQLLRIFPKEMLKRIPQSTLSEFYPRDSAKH

Take “QD202(P13A): QD202 in which proline at position 13 was substituted with alanine; expressed from pEGFP-N3 plasmid (YGRKKRRQRRRSAVDVVCS; not fully specified)”: the “binding to Myc-tagged hATP6V1B2 (co-immunoprecipitation)” value (from here on “binding to Myc-tagged hATP6V1B2”) with hATP6V1B2 is “also bind to”.
As for “QD202(V14A): QD202 in which valine at position 14 was substituted with alanine; expressed from pEGFP-N3 plasmid (YGRKKRRQRRRSPADVVCS; not fully specified)”, in the assay with hATP6V1B2, the “binding to Myc-tagged hATP6V1B2” value is reported as “also bind to”.
For `CC1=NN(c2ccccc2)C(=O)C1` [Edaravone], the neurobehavioral score entry with Male SD rats [1] is “significantly lower than that of the Model + QD202 placebo group with a statistically significant difference (p<0.01)”. Also, in the assay with Male SD rats [2], the infarct volume result is recorded as “significantly lower than that of the Model + QD202 placebo group, with a statistically significant difference (p<0.01)”. In addition, the inhibition at 200 µM with HT22 cells was determined as 63.8 ± 10.9%.
On to “QD202(D15A): QD202 in which aspartic acid at position 15 was substituted with alanine; expressed from pEGFP-N3 plasmid (YGRKKRRQRRRSPVAVVCS; left off: large carriers)”, for which the “binding to Myc-tagged hATP6V1B2” value in the assay with hATP6V1B2 is given as “also bind to”.
Take “QD202(V16A): QD202 in which valine at position 16 was substituted with alanine; expressed from pEGFP-N3 plasmid (YGRKKRRQRRRSPVDAVCS; not fully specified)”: the “binding to Myc-tagged hATP6V1B2” value in the assay with hATP6V1B2 was “significantly reduced”.

The inhibition is the share of the control response that was lost under treatment.
